Experiments:
[1] = system: PPIs identified as affected by the SH3 domain deletions; experiment: Liquid DHFR-PCA low-throughput validation of PPIs affected by SH3 deletion (Fig. S1D-E); assay type: cell-based, Saccharomyces cerevisiae; conditions: label = prey, liquid DHFR-PCA, prey _1 = lost, _2 = gained in screen
Protocol: Liquid DHFR-PCA low-throughput experiments were performed to validate the PPIs identified as affected by the SH3 domain deletions in the high-throughput solid DHFR-PCA screen (256 PPIs weaker or lost and 116 PPIs stronger or gained following domain deletions). Mating and the diploid selection were performed as described for the large-scale experiment, with the exception that the plates were in 384 formats. Following the second diploid selection, diploid cells were inoculated in a 96 v-shaped well plate using a robotically manipulated 96 pin tool in a synthetic complete medium with MSG at pH 6.0 with NAT and HPH. After 48 h of growth, optical density (OD) was read using a TECAN Infinite F200 Pro, and dilutions to 1 OD in sterile nanopure water were prepared. Cells were then diluted to 0.1 OD by combining 25 µl of cell suspension at OD = 1 and 225 µl of PCA selection media without agar in a 96-wells plate. Plates were incubated at 30 °C in a TECAN Infinite M Nano and OD was monitored each 15 min for 72 h.

[2] = system: growth of yeast strains under 51 stress conditions; experiment: Growth assays in 51 stress conditions (Fig. 1E-F, S2D, S5B); assay type: cell-based, Saccharomyces cerevisiae; set-up: key to Growth (Fig. S2D) / growth of ABP1 SH3-swapped strains in stress condition: log2 colony size, average of median per strain (growth score); conditions: ABP1 SH3-swapped strains
Protocol: All WT, SH3-deleted, KO (except for CDC25 which is the only essential SH3-containing gene in yeast), ABP1 SH3-swapped, and SLA1 SH3-shuffled strains were grown on omnitrays in 1536 formats and robotically manipulated with a pin tool (the DHFR F[1,2] bait strains were used except for the KO strains). Each strain was randomly positioned in 6 replicates per plate and two plates per condition were performed, for 12 replicates per strain in total. A border of two rows and two columns of WT strains (BY4741) around the plate was used to remove border effects. Strains were grown on YPD media for two days at 30 °C. They were then replicated on 51 different media that are described in the Supplementary Table 3 and were incubated at 37 °C in a spImager custom platform with images acquired every two hours for four days. The colony sizes from plate pictures were also measured with the R package “Gitter” and the output was manually inspected. Positions with an abnormality in colony circularity were removed. The colony sizes after 74 h of incubation at 37 °C were log2 transformed and used for the analyses. First, the differences between the two plate replicates were corrected to remove plate effects. The median colony size was calculated for each strain per plate. Strains with a difference in their median colony size of more than two between the two plate replicates were removed. Finally, the average of the median colony size was calculated for each strain per condition (growth score).

B1: YOR081C_2 (protein, UniProt Q12043 1-749, looked up)
Triacylglycerol lipase 5: MSNTLPVTEFLLSKYYELSNTPATDSSSLFKWLYHKTLSRKQLLISDLSSQKKHAISYDQWNDIASRLDDLTGLSEWKTIDESSLYNYKLLQDLTIRMRHLRTTHDYHRLLYLIRTKWVRNLGNMNNVNLYRHSHTGTKQIIHDYLEESQAVLTALIHQSNMNDHYLLGILQQTRRNIGRTALVLSGGSTFGLFHIGVLAALFESDLMPKVISGSSAGAIVASIFCVHTTQEIPSLLTNVLNMEFNIFNDDNSKSPNENLLIKISRFCQNGTWFNNQPLINTMLSFLGNLTFREAYNKTGKILNITVSPASIYEQPKLLNNLTAPNVLIWSAVCASCSLPGVFPSTPLFEKDPHTGKIKEWGATNLHLSNMKFMDGSVDNDMPISRLSEMFNVDHIIACQVNIHVFPLLKFSNTCVGGEIEKEITARFRNQVTKIFKFFSDETIHFLDILKELEFHPYLMTKLKHLFLQQYSGNVTILPDLSMVGQFHEVLKNPSQLFLLHQTTLGARATWPKISMIQNNCGQEFALDKAITFLKEKIIISSSIKNPLQFYQPRFSEQIKSLSIMDADLPGVDLEESSSNSLSIIKSPNKTAAPGRFPLQPLPSPSSTFNKRKMDMLSPSPSPSTSPQRSKSSFTQQGTRQKANSLSFAIGASSLRLKKSPLKVPSRPQFKKRSSYYNQNMSAEMRKNRKKSGTISSYDVQTNSEDFPIPAIENGSFDNTLFNPSRFPMDAMSAATNDNFMNNSDIFQN
[1]; bait LSB3
  Ratio (Deletedscore / WTscore): 1.383

B2: YOR039W_2 (protein, UniProt P38930 1-258, looked up)
Casein kinase II subunit beta': MGSRSENVGTVTREGSRVEQDDVLMDDDSDSSEYVDMWIDLFLGRKGHEYFCDVDPEYITDRFNLMNLQKTVSKFSYVVQYIVDDLDDSILENMTHARLEQLESDSRKLYGLIHARYIITIKGLQKMYAKYKEADFGRCPRVYCNLQQLLPVGLHDIPGIDCVKLYCPSCEDLYIPKSSRHSSIDGAYFGTSFPGMFLQAFPDMVPKHPTKRYVPKIFGFELHKQAQLTRWQELQRLKLVEKLESKDVDLTKSGGFKT
[1]; bait LSB3
  Ratio (Deletedscore / WTscore): 1.116

B3: YPL246C_2 (protein, UniProt Q12270 1-262, looked up)
Rhomboid-type serine protease …: MNWKSYVFPGGHPPAALTTGLVVFLTAIYLLSFIFALREDLSLAPESLFKLQMSRLSLYPLIHLSLPHLLFNVLAIWAPLNLFEETHGTVYTGVFLNLSALFAGILYCLLGKLLYPEALVAGASGWCFTLFAYYSFKESQIRPRTRIFRTDYSIPTLYTPLVLLVAIAVVIPGSSFWGHFFGLCVGYAIGYKESWFNKITPPGWIITKIEKSLDGLIRLIPWGIKYYRDEDIDRTKDYEPLMSTETPLPLHNDNSGTVLGTA
[1]; bait ABP1
  Ratio (Deletedscore / WTscore): 1.339
[1]; bait LSB3
  Ratio (Deletedscore / WTscore): 1.364
[1]; bait SHO1
  Ratio (Deletedscore / WTscore): 1.171

B4: ABP1 WT (protein, UniProt P15891 2-592, looked up)
Actin-binding protein: ALEPIDYTTHSREIDAEYLKIVRGSDPDTTWLIISPNAKKEYEPESTGSSFHDFLQLFDETKVQYGLARVSPPGSDVEKIIIIGWCPDSAPLKTRASFAANFAAVANNLFKGYHVQVTARDEDDLDENELLMKISNAAGARYSIQTSSKQQGKASTPPVKKSFTPSKSPAPVSKKEPVKTPSPAPAAKISSRVNDNNDDDDWNEPELKERDFDQAPLKPNQSSYKPIGKIDLQKVIAEEKAKEDPRLVQKPTAAGSKIDPSSDIANLKNESKLKRDSEFNSFLGTTKPPSMTESSLKNDDDKVIKGFRNEKSPAQLWAERKAKQNSGNAETKAEAPKPEVPEDEPEGEPDVKDLKSKFEGLAASEKEEEEMENKFAPPPKKSEPTIISPKPFSKPQEPVKAEEAEQPKTDYKKIGNPLPGMHIEADNEEEPEENDDDWDDDEDEAAQPPLPSRNVASGAPVQKEEPEQEEIAPSLPSRNSIPAPKQEEAPEQAPEEEIEEEAEEAAPQLPSRSSAAPPPPPRRATPEKKPKENPWATAEYDYDAAEDNELTFVENDKIINIEFVDDDWWLGELEKDGSKGLFPSNYVSLGN
[2]; Bathophenanthroline.0.1uM
  Growth (Fig. S2D): 10.7779
[2]; Bathophenanthroline.10uM
  Growth (Fig. S2D): 10.6544
[2]; Bathophenanthroline.1uM
  Growth (Fig. S2D): 10.7233
[2]; CaCl2.100mM
  Growth (Fig. S2D): 10.745
[2]; CaCl2.250mM
  Growth (Fig. S2D): 10.6724
[2]; CaCl2.500mM
  Growth (Fig. S2D): 10.224
[2]; Caffein.10mM
  Growth (Fig. S2D): 9.987
[2]; Caffein.2mM
  Growth (Fig. S2D): 10.9881
[2]; CdCl2.100uM
  Growth (Fig. S2D): 9.742
[2]; CdCl2.10uM
  Growth (Fig. S2D): 10.8471
[2]; CdCl2.50uM
  Growth (Fig. S2D): 10.1808
[2]; CuSO4.1mM
  Growth (Fig. S2D): 10.5746
[2]; CuSO4.5mM
  Growth (Fig. S2D): 8.442
[2]; Cycloheximide.0.05.uM
  Growth (Fig. S2D): 11.0561
[2]; Cycloheximide.0.2.uM
  Growth (Fig. S2D): 10.6665
[2]; Cycloheximide.0.5.uM
  Growth (Fig. S2D): 10.4823
[2]; DMSO.2.
  Growth (Fig. S2D): 10.9822
[2]; DMSO.6.
  Growth (Fig. S2D): 9.9755
[2]; DMSO.8.
  Growth (Fig. S2D): 9.381
[2]; Ethanol.2.
  Growth (Fig. S2D): 10.76
[2]; Ethanol.6.
  Growth (Fig. S2D): 10.427
[2]; Ethanol.8.
  Growth (Fig. S2D): 10.4864
[2]; Galactose.2.
  Growth (Fig. S2D): 10.7856
[2]; Glycerol.2.
  Growth (Fig. S2D): 10.3292
[2]; Hydroxyurea.25mM
  Growth (Fig. S2D): 10.7632
[2]; Hygromycin.190uM
  Growth (Fig. S2D): 10.9263
[2]; Hygromycin.19uM
  Growth (Fig. S2D): 10.9545
[2]; Hygromycin.95uM
  Growth (Fig. S2D): 10.9494
[2]; MMS.0.004.
  Growth (Fig. S2D): 10.9625
[2]; MMS.0.02.
  Growth (Fig. S2D): 10.8338
[2]; MMS.0.04.
  Growth (Fig. S2D): 10.264
[2]; Menadione.100uM
  Growth (Fig. S2D): 10.4792
[2]; Menadione.200uM
  Growth (Fig. S2D): 10.398
[2]; Menadione.50uM
  Growth (Fig. S2D): 10.8403
[2]; NaCl.0.25M
  Growth (Fig. S2D): 10.7336
[2]; NaCl.1M
  Growth (Fig. S2D): 10.1964
[2]; Nitroquinoline.10uM
  Growth (Fig. S2D): 10.6457
[2]; Nitroquinoline.50uM
  Growth (Fig. S2D): 10.6448
[2]; Nystatin.0.01uM
  Growth (Fig. S2D): 10.9455
[2]; Nystatin.0.1uM
  Growth (Fig. S2D): 11.0177
[2]; Raffinose.2.
  Growth (Fig. S2D): 10.9059
[2]; Rapamycin.10nM
  Growth (Fig. S2D): 9.962
[2]; Rapamycin.50nM
  Growth (Fig. S2D): 9.216
[2]; SC.pH3
  Growth (Fig. S2D): 10.4509
[2]; SC.pH6
  Growth (Fig. S2D): 10.9947
[2]; SDS.0.01.
  Growth (Fig. S2D): 10.9398
[2]; SDS.0.02.
  Growth (Fig. S2D): 10.9447
[2]; SDS.0.05.
  Growth (Fig. S2D): 10.807
[2]; Sorbitol.10mM
  Growth (Fig. S2D): 10.9819
[2]; Sorbitol.1mM
  Growth (Fig. S2D): 10.9741
[2]; Sorbitol.5mM
  Growth (Fig. S2D): 10.8941

B5: YGR037C_2 (protein, UniProt P31787 1-87, looked up)
Acyl-CoA-binding protein: MVSQLFEEKAKAVNELPTKPSTDELLELYALYKQATVGDNDKEKPGIFNMKDRYKWEAWENLKGKSQEDAEKEYIALVDQLIAKYSS
[1]; bait LSB3
  Ratio (Deletedscore / WTscore): 1.675
[1]; bait MYO3
  Ratio (Deletedscore / WTscore): 1.004
[1]; bait MYO5
  Ratio (Deletedscore / WTscore): 0.9102

B6: YFR004W_2 (protein, UniProt P43588 1-306, looked up)
Ubiquitin carboxyl-terminal …: MERLQRLMMNSKVGSADTGRDDTKETVYISSIALLKMLKHGRAGVPMEVMGLMLGEFVDDYTVNVVDVFAMPQSGTGVSVEAVDDVFQAKMMDMLKQTGRDQMVVGWYHSHPGFGCWLSSVDVNTQKSFEQLNSRAVAVVVDPIQSVKGKVVIDAFRLIDTGALINNLEPRQTTSNTGLLNKANIQALIHGLNRHYYSLNIDYHKTAKETKMLMNLHKEQWQSGLKMYDYEEKEESNLAATKSMVKIAEQYSKRIEEEKELTEEELKTRYVGRQDPKKHLSETADETLENNIVSVLTAGVNSVAIK
[1]; bait ABP1
  Ratio (Deletedscore / WTscore): 1.111
[1]; bait LSB3
  Ratio (Deletedscore / WTscore): 1.521
[1]; bait MYO3
  Ratio (Deletedscore / WTscore): 1.308
[1]; bait MYO5
  Ratio (Deletedscore / WTscore): 1.194
[1]; bait RVS167
  Ratio (Deletedscore / WTscore): 1.454

Source: PMC7954794, “Protein context shapes the specificity of SH3 domain-mediated interactions in vivo” (Nature Communications, 2021)
